Assay results as given in the RNAGym collection of RNA variant scans (doi:10.1021/acssynbio.7b00057).

B1: Pistol ribozyme (parent)
chain: GGGUCGUUGUUCCAUAAUCGCGUGGAUAUGGCACGCAAGUUUCUACCGGGCACCGUAAAUGUCCGACUGGAGCCGUUCGGGCGGCUAUAAACAGACCUCAGGCCCGAAGCGUGGCGGCACCUGCCGCCGGUGGUAAAAAAGAUCGGAAGAGCACACGUCU

Variants of: B1
Test: aptazyme ON/OFF ratio, guanine; higher = stronger switching; co-transcriptional cleavage with and without guanine

Variant	aptazyme ON/OFF ratio
U7A G9A U11A C13U	1.06
U7G G9A U10C U11C C12A C13G	1.19
U7G G9A U10C U11C C12A C13A	1.11
U7C U8A U10C U11G C12A C13G	1.21
U8G G9C U10C U11A C12U C13G	1.02
U8C G9C U11A C12A C13A	1.09
U7A U8C G9A U10A U11C C12G C13G	1.17
U7G U8A G9U U11G C12G C13G	1.03
G9C U10G U11G C13U	1.13
U7G U8G G9U C12U C13G	1.14
U7C U8C G9C U11A C12A C13A	1.1
U7C U8A G9U U11A C12G C13A	1.17
U7G U8G G9C U10C U11G C12G	1.23
U8G U10A U11G	1.34
U7A U8G G9C U10C U11G C12U C13A	1.15
U7C U8G C12G C13G	1.08
U7A U8G G9U U10A U11A C12U C13A	1.26
U7C U8A U10A U11C C12U C13G	1.04
U7A U8C G9A U10G U11C C12G	1.22
U7A G9A U10G C12U C13G	1.14
U8C G9A U11G C13G	1.27
U7A U8A G9A U11G C13G	1.14
U7G U8G U10C U11C C12U C13U	1.4
U7A U8C U10A U11G C12G C13A	1.36

Variant	aptazyme ON/OFF ratio
U7C U8G G9C U10C U11A C12G C13A	1.1
U7C U10C C13A	1.11
U7C U8C U11G C12G	1.33
U7A U8A U10A U11G	1.17
U7C U8G G9C U11A C13A	1.17
U7G U10A U11C C12G C13U	1.11
G9A U10A U11A C13U	1.46
U7G U8G U10C U11A C13G	1.38
U7G U8G G9U U10A U11A C12U	1.31
U7C U8A G9U U10G U11C C12G C13G	1.23
U7A G9A U10C U11A C12G C13G	1.32
U8A G9U U10A U11C C12A C13A	1.23
U7A U8A G9U U10G C12U	1.33
U8G G9C U11G C12G	1.15
U7G G9A U10A	3.3
U7G U8A G9U U10C U11C C12A C13U	1.09
U7C U8A G9C U11C C13A	1.14
U7G U8C G9C U10A C12U C13A	1.03
U8G G9U U10A U11A C12U	1.19
U8G U10G U11G C13G	1.25
U8A G9A U10A U11A C12U C13U	1.21
U7C U8C U10C U11C C12U C13A	1.31
U8C G9U U10C U11G C13G	1.2
U7C U8G G9U U10G U11A C12A C13G	1.17

Variant	aptazyme ON/OFF ratio
U7G U8A G9C U10G C12U C13G	1.03
U8C G9C U10A U11C C12A C13A	1.27
U8C G9C U10A U11C C12A C13G	1.18
U7G U8A G9U U11A C12G C13A	1.06
U7G U10A C12A	1.21
U7C U8G G9A U11C C12G C13A	1.05
U8G G9A U11C C12G C13G	1.18
U7G U8G G9A U11C C12U	1.65
U7C G9C U10C U11A C12U C13U	1.03
U7A U8G G9U U10C U11G C12G C13G	1.26
U8A G9U U10A C12G C13U	1.33
G9A C12U C13G	1.62
U7G U8G G9C C13U	1.47
U7G U8C U11A C13A	1.14
U7G U8C G9A U10C U11G C12G C13A	1.08
U8A U10C C12U	3.12
U7A G9C U10A U11A C12U C13U	1.1
U8C U10C U11A C12U C13U	1.35
U8C U11C C13A	1.21
U7G U8G G9U U10C U11A C12A C13G	1.24
U7G U8A G9C U11C C12U	1.11
U7G U8C G9A U10G U11A C12U C13G	1.09
U8G C12U C13G	1.4
U7A U8C G9A U11A	1.25

Variant	aptazyme ON/OFF ratio
U7G U8G G9A U10C U11A C12U	1.18
U7C U8G U11A C13G	1.07
U7G G9C U10C U11C C12U C13G	1.07
U7G U8A G9C U10A U11A C12G	1.03
U7A U8G G9A U10G U11C	1.01
U7A G9C U10C U11C C12A C13G	1.03
U8C G9U U10A U11G C12U C13U	1.2
U8C G9U U10C U11A C13A	1.13
U7G G9A U11G C12A C13U	1.07
G9C U11G C12A C13G	1.03
U7A U8C U10A U11C C12U C13G	1.07
U7C U8G G9A U10G U11A C12A	1.47
U7C U8A G9C U10C U11G C12U	1.08
U7A U8A G9C U11C C12A	1.07
U7A U8C G9A U10A U11G C12A C13G	1.23
U7C U8G G9U U11A C12A C13A	1.32
G9C U10C U11C C12G C13U	1.04
U7G U8A G9A U10A U11G C12G	1.2
U7G U8C G9A U10C U11G	1.5
U7C U8G U10G C13U	1.35
U7C U8G G9C U10A U11G	1.18
U7A U8C G9C U10G C12A	1.07
U7G U8A U10A U11A C13G	1.15
U7C U8C G9U U10C C12A C13A	1.17

Variant	aptazyme ON/OFF ratio
U7C U8C G9A U10G U11C C12A C13G	1.07
U7C U8A U10A C12G C13U	1.26
U8A C12G C13U	1.24
U7C U8G G9A U10G U11A C12U C13U	1.32
U7A U8G G9U U11G	1.94
U7C U8A U10C C12A C13G	1.07
U7C U8G G9U U10A U11G	1.22
U7G U8A G9C C12G C13A	1.02
U7G U10C C12U C13G	1.06
U7C U8C G9U U10A U11C	1.16
U8C G9U U10C C12U	1.05
U8G G9A U11C C13G	1.01
U7G U8A U10A U11G C12A	1.11
U7A U8A G9U U10G U11G C12G C13U	1.22
U7A G9U U10G U11A C12G C13G	1.21
U8C U10A	1.1
U7G U8A G9A U10G U11A C12G C13A	1.04
U7A U8C G9C U10G U11G C12U C13U	1.1
U7C U8G G9A C12G C13A	1.15
U7A G9A U10G U11A C13A	1.09
U8A U10C C12A C13A	1.23
U7C U8C C12U	1.75
U8A G9C U10A U11C C12A C13A	1.22
U8C U10G U11C C12A C13G	1.11

Variant	aptazyme ON/OFF ratio
U7A U8G G9C U10A U11G C12U C13U	1.35
U7G U11G C12U C13U	1.2
U7C U8A G9C U10C U11C C13A	1.01
G9A U10A U11C C13A	1.13
U7A G9U C13G	1.05
U7C U8C U10A C12A	1.06
U7A U8C G9U U10G U11G C12A C13G	1.11
U7A U8G G9U U10A U11A C12A C13G	1.25
U7G U8G G9C U10C U11A C12G	1.32
U7A U8A U10G U11G C12A C13A	1.21
U10G U11G C12A	1.37
U7C G9C U11A C12G C13G	1.07
U7A U8C U10C U11C	1.04
U8A G9U U10G C12A C13A	1.18
G9A U11G C12A C13U	1.32
U7A U8C G9U U10C C12U C13A	1.19
U7C U8G U10C U11G C12U C13U	1.25
U7A U8C U10C C12G C13U	1.41
U7A U8C U10C C12G C13G	1.22
U7C U8C G9C U10C U11C C13A	1.06
U7C C12G C13A	1.18
U7A G9A U10C U11G C12G	1.3
U7G U8C G9A U10A C13A	1.19
U8C U10C U11A C12G C13U	1.24

Variant	aptazyme ON/OFF ratio
U7G G9C U10C U11C C12A C13U	1.03
U7A U8C G9A U10A U11G C13U	1.17
U7A U8C G9C U10A U11A C12U	1.07
U7C G9C U10G U11C C12A	1.19
U7G U8C G9A U10A U11C C13U	1.08
U7C U8A G9A U10A	1.69
U7G U8G G9C U10C U11A C12A C13A	1.33
U7G U8G G9C U10C U11C C12A C13U	1.1
U7G U8G G9C U10C U11C C12A C13A	1.05
G9U U10C U11C C12G C13A	1.08
U7G G9C U10C C12G C13A	1.31
U7A U8A G9A U10C U11G C12G C13G	1.15
U7G G9A U10C C12G C13G	1.19
U7A U8C U10G U11C C12G C13A	1.45
U8A U10A U11A C13U	1.06
U7A U8G G9A U10G U11G C12U	1.32
U7C U8A G9U U10A C12U	1.19
U7G U8A G9C U10A C12U	1.03
U7G U10C C12A C13G	1.1
U7G U8A G9C U10C U11C C12G C13U	1.03
U7A U8C G9C U10C C12U	1.04
U7C U8A G9A U10C C13A	1.03
U7A U8C G9A U10G U11G C12A C13U	1.27
